Assay results reported in the supplement of paper PMC9732359.
± gives the uncertainty stated by the source.

Test: protein stability index of a GFP-peptide fusion (yeast GPS) (PSI 1-4); higher = more stable; sorted into four equal gates, so the index is relative within each strain
Method in brief: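 Yeast carrying a pooled library were grown to mid-log phase in leucine-free medium. Each library plasmid expresses Cherry and has a tiled 17-residue yeast protein peptide fused downstream of GFP. Cells were sorted into four equal gates by GFP/Cherry ratio, and plasmids from each gate were PCR-amplified, Illumina-sequenced and assigned to strains by barcode. Summing, across gates, the read frequency times the gate number gave each peptide's protein stability index.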

Sequence | protein stability index (doa10∆) | protein stability index (san1∆) | protein stability index (ubr1∆) | protein stability index (pdr5∆)
QFVETIVSKSIEMYVQE [RPN2] | 1.51 ± 0.13 | 1.05 ± 0.11 | 1.15 ± 0.2 | –
QFYVKRWKRFTIGAIFL [CDC53] | 2.81 ± 0.076 | 3.08 ± 0.099 | 2.04 ± 0.055 | 2.94 ± 0.093
QGLNILEWLENPSNTPD [FAS1] | 3.2 ± 0.12 | 3.41 ± 0.051 | 3.14 ± 0.058 | 3.06 ± 0.086
QGNYPTTSYIKEQENIT [DPB4] | 3 ± 0.06 | 3.02 ± 0.041 | 3.18 ± 0.075 | 3.1 ± 0.06
QGPIVADKNCAKLHRIS [PUP1] | 3.41 ± 0.15 | 2.79 ± 0.1 | 2.64 ± 0.072 | 2.94 ± 0.088
QIDHFKSMLSKPETLSI [SWI3] | 2.61 ± 0.086 | 2.73 ± 0.065 | 2.4 ± 0.048 | 2.44 ± 0.074
QIIRLFYSKNRLLITGT [ISW2] | 2.55 ± 0.23 | – | – | 1.56 ± 0.14
QIIRRVKEMEPKQSDEY [SIR3] | 3.29 ± 0.12 | 3.37 ± 0.069 | 2.89 ± 0.15 | 3.18 ± 0.11
QIPQQLYQSLTPQQLQM [SNF5] | 2.73 ± 0.041 | 2.57 ± 0.045 | 2.77 ± 0.034 | 2.7 ± 0.038
QIQQQQQKQQQQQQQHQ [SNF5] | 2.53 ± 0.12 | 2.93 ± 0.12 | 2.61 ± 0.22 | 2.97 ± 0.14
QKKIQINKEMGELNSKL [SMC3] | – | – | 3.15 ± 0.13 | 3.34 ± 0.21
QKRLEAGALNLASPEVK [DIS3] | – | – | 2.82 ± 0.081 | 2.64 ± 0.18
QKTQELNAKYQSLGLDD [ISW2] | 3.31 ± 0.061 | 3.17 ± 0.042 | 3.31 ± 0.052 | 3.26 ± 0.048
QKTRVKLLFDHDELDMN [ESC2] | 2.87 ± 0.16 | 3.02 ± 0.076 | 3.12 ± 0.093 | 3.36 ± 0.12
QKTVNLKNIMKVSDPYV [RPN4] | 2.32 ± 0.084 | 2.48 ± 0.1 | 1.82 ± 0.058 | 2 ± 0.11
QLDSKLMVFNDDTKNQD [YGR119C/NUP57] | 2.93 ± 0.062 | 2.6 ± 0.057 | 2.91 ± 0.045 | 2.75 ± 0.054
QLFHSMSIVFGDKFSED [UBP6] | 1.62 ± 0.056 | 1.14 ± 0.094 | 1.38 ± 0.041 | 1.34 ± 0.06
QLGEWAGLGKIDREGNA [RPS12] | 3.67 ± 0.28 | 3.4 ± 0.26 | 3.35 ± 0.14 | –
QLIKQSIKNNVAMCFVI [SNU114] | 1.37 ± 0.16 | 1.24 ± 0.2 | – | 1.69 ± 0.14
QLLEKAPIPIREDIDDP [BRR2] | 2.64 ± 0.064 | 2.37 ± 0.088 | 1.92 ± 0.058 | 2.55 ± 0.066
QLNEERSRYRREIDALK [YIL149C/MLP2] | 3.44 ± 0.092 | 3.24 ± 0.045 | 3.25 ± 0.035 | 3.25 ± 0.065
QLNGNETFSTSAHQSPI [SNF2] | 3.31 ± 0.11 | 3.16 ± 0.072 | 3.22 ± 0.054 | 2.99 ± 0.075
QLQGPQWMNEMVERWAN [SOH1] | 3.28 ± 0.11 | 2.93 ± 0.099 | 3.06 ± 0.084 | 3.18 ± 0.091
QLSNGIVVATEHNPSAH [COR1] | 2.88 ± 0.075 | 3.2 ± 0.059 | 2.52 ± 0.074 | 3.08 ± 0.1
QLTPQQQQLVNQMKVAP [GAL11] | 2.8 ± 0.061 | 3.01 ± 0.061 | 2.79 ± 0.049 | 2.98 ± 0.058
QLVPIRLEFDQDRDRFF [SNF5] | 3.14 ± 0.13 | 2.98 ± 0.24 | 3.1 ± 0.078 | 2.98 ± 0.16
QLWLNSSGDFDDNNNNN [GRR1] | 3.19 ± 0.076 | 3.17 ± 0.1 | 3.06 ± 0.055 | 3.16 ± 0.07

Sequence | protein stability index (doa10∆) | protein stability index (san1∆) | protein stability index (ubr1∆) | protein stability index (pdr5∆)
QLYFQKNGAQDLVLQIL [RRI2] | 2.6 ± 0.12 | 2.32 ± 0.097 | 2.62 ± 0.048 | 2.81 ± 0.12
QMAVHIATDGGRICRPL [RET1] | 2.66 ± 0.094 | 2.78 ± 0.1 | 2.8 ± 0.054 | 3.04 ± 0.085
QNAKLLANLIRDALRNI [RRP6] | 2.17 ± 0.055 | 2.36 ± 0.084 | 2.23 ± 0.043 | 2.18 ± 0.062
QNFENDFSLRYISNLLY [REC8] | 2.19 ± 0.074 | 2.02 ± 0.11 | 2.06 ± 0.043 | 2.29 ± 0.076
QNNLPPNFFLTLISENW [BRR2] | 2.94 ± 0.073 | 2.91 ± 0.071 | 2.94 ± 0.072 | 3.13 ± 0.069
QNQGGAQAPFDIDDLAF [ROX3] | 3.55 ± 0.13 | 3.4 ± 0.11 | 3.37 ± 0.065 | –
QNRSLQEHNIQDSNVMP [SNF2] | 3.19 ± 0.057 | 2.92 ± 0.04 | 3.31 ± 0.04 | 3.08 ± 0.053
QNSKFLKVNVTLDNPLL [YJL039C/NUP192] | 2.72 ± 0.088 | 2.91 ± 0.058 | 2.36 ± 0.044 | 2.57 ± 0.083
QPEVAVKAAINFSNVTD [YIL149C/MLP2] | 2.21 ± 0.064 | 2.2 ± 0.071 | 2.55 ± 0.048 | 2.44 ± 0.055
QPKLNPMASSSSFGSES [SWI1] | 2.85 ± 0.064 | 3.12 ± 0.048 | 2.92 ± 0.057 | 3.28 ± 0.069
QPKRNLSRYVKWPEYVR [RPL8A] | 2.87 ± 0.096 | 3.06 ± 0.06 | 2.99 ± 0.066 | 2.98 ± 0.046
QPNEISFKYLSNNDEDD [RGR1] | 2.37 ± 0.053 | 1.88 ± 0.072 | 2.36 ± 0.039 | 2.29 ± 0.041
QPQHPHYVSTSKISQMA [YLR018C/POM34] | 1.71 ± 0.037 | 2.34 ± 0.048 | 2.19 ± 0.026 | 2.17 ± 0.04
QQAQSFVGKKNTIGSVH [SSN3] | 3.14 ± 0.1 | 3.1 ± 0.081 | 2.98 ± 0.097 | 3.12 ± 0.12
QQEAKYRNNEPAGFTHK [YDL088C/ASM4] | 2.88 ± 0.052 | 2.6 ± 0.059 | 2.83 ± 0.045 | 2.98 ± 0.046
QQENSKSGKRKPNIILD [RPC31] | 2.83 ± 0.099 | 2.64 ± 0.089 | 2.79 ± 0.076 | 2.83 ± 0.086
QQFNLHEILSEPAIEEE [MED1] | 2.94 ± 0.15 | 2.98 ± 0.17 | 3.26 ± 0.13 | 3.1 ± 0.12
QQGQNMSEQQWREQLRN [ROX3] | 2.55 ± 0.071 | 2.42 ± 0.086 | 2.23 ± 0.032 | 2.48 ± 0.055
QQLDSFNQFVDYTLQDI [RPB2] | 2.48 ± 0.094 | 2.75 ± 0.052 | 2.43 ± 0.086 | 2.64 ± 0.1
QQLLKGLSLSFSKKLDL [DSN1] | 3.13 ± 0.076 | 2.74 ± 0.069 | 3.16 ± 0.075 | 3.1 ± 0.088
QQLLPAPQLFPYGSFHQ [DSN1] | 2.72 ± 0.09 | 2.72 ± 0.072 | 3.04 ± 0.08 | 3.01 ± 0.1
QQLVDSEKRLDHFIHLR [SNF12] | 2.3 ± 0.12 | 2.56 ± 0.078 | 2.68 ± 0.076 | 2.75 ± 0.07
QQPNPLHGLTPTAKDVE [GAL11] | 3.17 ± 0.053 | 3.15 ± 0.06 | 3.07 ± 0.033 | 2.98 ± 0.041
QQQLQQNSKEKNGLGLN [MED2] | 2.5 ± 0.29 | 2.42 ± 0.26 | 2.96 ± 0.13 | 3.26 ± 0.12
QQQPQPQYNMNMGMNNM [PGD1] | 3.02 ± 0.049 | 3.29 ± 0.041 | 2.89 ± 0.069 | 2.77 ± 0.05
QQQQQQQQQTSPPPQTH [SNF5] | 2.765 ± 0.011 | 2.799 ± 0.01 | 2.824 ± 0.009 | 2.862 ± 0.011
